According to US20210254073A1:

How the values were obtained:
[1] = target: human Heat Shock Factor 1 (HSF1) tagged with GFP (Homo sapiens; Aequorea victoria) (UniProt Q00613); assay: AptA-MS: GFP-aptamer pull-down of HSF1-GFP from HCT116 lysate, mass spectrometry, SAINT probability score of interaction
[2] = target: human Heat Shock Factor 1 (HSF1) tagged with GFP (Homo sapiens; Aequorea victoria) (UniProt Q00613); assay: AptA-MS of HSF1-GFP from heat-shocked HCT116 cells, SAINT probability score of interaction
[3] = target: human Heat Shock Factor 1 (HSF1) tagged with GFP (Homo sapiens; Aequorea victoria) (UniProt Q00613); assay: AptA-MS of HSF1-GFP from non-heat-shocked HCT116 cells, SAINT probability score of interaction

UniProt Q00613, sequence (Q00613 whole entry): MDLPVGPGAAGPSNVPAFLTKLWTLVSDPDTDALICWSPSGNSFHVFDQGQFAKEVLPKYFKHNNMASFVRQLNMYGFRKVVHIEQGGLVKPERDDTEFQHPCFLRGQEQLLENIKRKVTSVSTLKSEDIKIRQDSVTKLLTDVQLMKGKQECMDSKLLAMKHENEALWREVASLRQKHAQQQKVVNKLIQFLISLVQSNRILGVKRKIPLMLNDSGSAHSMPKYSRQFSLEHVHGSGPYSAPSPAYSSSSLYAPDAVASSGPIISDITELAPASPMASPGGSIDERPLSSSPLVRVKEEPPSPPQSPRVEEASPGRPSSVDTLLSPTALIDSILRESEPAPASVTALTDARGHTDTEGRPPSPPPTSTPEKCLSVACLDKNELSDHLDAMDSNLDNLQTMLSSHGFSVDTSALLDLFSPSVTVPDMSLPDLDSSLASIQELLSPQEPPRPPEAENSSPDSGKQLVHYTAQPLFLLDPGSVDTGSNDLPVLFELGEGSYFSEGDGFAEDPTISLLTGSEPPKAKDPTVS

Substance | SAINT score [1] | SAINT score [2] | other results
Thymidylate Kinase (from UniProt P23919 2-212) (enzyme) |  | 0.98 | 
HSF2 (from UniProt Q03933 1-536) |  |  | SAINT score [3]: 0.78

Second part, led by results:

SAINT score [1] | SAINT score [2] | Substance | other results
0.66 |  | Elongation Factor 1-alpha 2 (from UniProt Q05639 2-463) | 
0.69 |  | Elongation Factor 1-alpha 1 (from UniProt P68104 2-462) | 
 | 0.92 | translation elongation factor HBS1 (from UniProt Q9Y450 1-684) | 
